Test results: patent publication US20210355215A1

Target: BsAb CD3-BCMA (human)
Experiment: 1 mL CH1-XL column, purified BsAb 5 mg/ml load, residence time 4 min, 10% breakthrough

Chain of BsAb CD3-BCMA (human) (heavy, as listed by the source, chain 1 of 3): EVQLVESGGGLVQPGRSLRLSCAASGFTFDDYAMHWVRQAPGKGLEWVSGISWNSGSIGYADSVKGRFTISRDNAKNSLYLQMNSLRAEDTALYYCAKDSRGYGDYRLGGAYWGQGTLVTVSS
Chain of BsAb CD3-BCMA (human) (light, as listed by the source, chain 2 of 3): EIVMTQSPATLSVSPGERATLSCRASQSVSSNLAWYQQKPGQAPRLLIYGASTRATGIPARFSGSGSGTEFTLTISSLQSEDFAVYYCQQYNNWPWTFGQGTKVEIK
Chain of BsAb CD3-BCMA (human) (heavy, as listed by the source, chain 3 of 3): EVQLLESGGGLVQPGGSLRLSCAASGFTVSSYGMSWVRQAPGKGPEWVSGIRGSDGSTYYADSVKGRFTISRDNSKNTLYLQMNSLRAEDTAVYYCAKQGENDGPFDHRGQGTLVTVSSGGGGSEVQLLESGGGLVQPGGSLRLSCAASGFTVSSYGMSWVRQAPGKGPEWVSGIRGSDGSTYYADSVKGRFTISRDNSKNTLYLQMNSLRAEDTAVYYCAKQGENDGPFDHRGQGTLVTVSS

dynamic binding capacity: 9.3 mg/mL
Substance: CaptureSelect CH1-XL affinity resin ligand (13 kDa llama heavy chain antibody fragment, Ig heavy chain CH1-specific nanobody) (VHH)
